The results in this text go back to US11142588B2, “Polypeptides which bind C-X-C chemokine receptor type 4 (CXCR4) and methods of treating or reducing the risk of fibrosis and cancer” (AdAlta Limited, priority 2015, dated 2021).

Entries after “also recorded” stand apart in the source; their conditions may differ.

The nature of experiment [1]: Binding to null lipoparticles (off-target control). On the procedure:
(FIGS. 2A-2C, 5A-5C, 11A-11D, 17A-17B) Kinetic binding analysis of selected i-bodies with immobilized CXCR4 lipoparticles were performed at 25° C. using Biacore T200 instrument (GE Healthcare, Uppsala, Sweden). Streptavidin immobilization was performed in 1×HBS-P+ running buffer (10 mM HEPES, 150 mM NaCl, 0.05% [v/v] Tween-20). Amine coupling kit (GE Healthcare) and the instructions therein were utilized for the attachment of Streptavidin (Sigma; diluted to 100 μg/mL in 10 mM sodium acetate buffer pH 4.5) in all four channels on the sensor chip surface simultaneously, resulting in >6,000 RU of Streptavidin being coupled (1 RU=1 pg protein/mm^2). All binding experiments involving lipoparticles were performed with 1×HBS/BSA (10 mM HEPES, 150 mM NaCl, 1 mg/mL BSA) as instrument running buffer. Biotinylated CXCR4 lipoparticles (Integral Molecular, Cat #LEV-101B; 3.6 U/mL as described in WO 2005/042695) were typically diluted 1 in 20 in the running buffer and immobilized onto a Streptavidin containing channel by injecting at […] for 1,800 sec resulting in captured response levels of greater than 2,500 RU. […] In order to determine binding kinetics, serial dilutions (three-fold) of i-bodies diluted in 1×HBS/BSA were injected over immobilized lipoparticles with the association and dissociation phases monitored for 60 sec and 600 sec, respectively. […]

Experiment [2] deals with CCR5 positive lipoparticles (Homo sapiens, UniProt P51681). The experiment can be described thus: Biacore SPR binding to CCR5 positive lipoparticles (off-target control). (Surface plasmon resonance follows binding to a sensor surface in real time, without labels.)
Sequence of CCR5 positive lipoparticles (P51681 whole entry): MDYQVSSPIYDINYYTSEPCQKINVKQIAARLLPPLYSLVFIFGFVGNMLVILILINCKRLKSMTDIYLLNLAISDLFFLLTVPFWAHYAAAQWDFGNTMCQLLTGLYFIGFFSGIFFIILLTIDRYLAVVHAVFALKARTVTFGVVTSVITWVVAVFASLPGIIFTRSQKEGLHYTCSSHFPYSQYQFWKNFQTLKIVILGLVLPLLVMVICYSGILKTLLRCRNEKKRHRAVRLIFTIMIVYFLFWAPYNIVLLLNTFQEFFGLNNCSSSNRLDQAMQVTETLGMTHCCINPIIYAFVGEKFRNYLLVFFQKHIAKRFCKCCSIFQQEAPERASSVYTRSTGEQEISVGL
In experiment [3] the target is T1, CCR4 (Homo sapiens, UniProt P51679).
T1 sequence (P51679 1-360): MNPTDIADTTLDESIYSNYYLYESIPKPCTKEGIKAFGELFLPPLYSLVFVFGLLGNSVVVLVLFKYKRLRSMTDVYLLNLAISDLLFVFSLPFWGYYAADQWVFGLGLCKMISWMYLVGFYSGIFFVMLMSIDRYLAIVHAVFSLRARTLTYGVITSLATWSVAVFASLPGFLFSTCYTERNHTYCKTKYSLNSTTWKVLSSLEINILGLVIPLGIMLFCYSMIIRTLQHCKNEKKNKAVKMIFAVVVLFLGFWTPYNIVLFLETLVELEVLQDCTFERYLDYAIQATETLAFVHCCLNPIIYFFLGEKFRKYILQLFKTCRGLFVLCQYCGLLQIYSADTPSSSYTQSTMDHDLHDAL
The experiment is described as follows: PathHunter (DiscoverX) β-arrestin assay, CCR4. The format is cell-based. As for the experimental part: (FIG. 9) The PathHunter® β-Arrestin assay (DiscoveRx) was performed according to the manufacturer's protocol. Cells were seeded into white walled, 384-well tissue culture-treated microplates (Corning) and normalized at 5,000 cells (or 10,000 cells for CXCR4) in a total volume of […]. Cell growth was at 37° C. (5% CO2, 95% relative humidity). […] Agonists were then added at the EC80 concentration and incubation was continued at 37° C. for 90 min (or 180 min for CCR1). Assay signal was generated through a single addition of 15 μL (50% v/v) of PathHunter Detection reagent cocktail, followed by 1 h incubation at room temperature. Microplates were read following signal generation with a PerkinElmer Envision instrument for chemiluminescent signal detection of relative light units (RLU).

Experiment [4] deals with CXCR4 (Homo sapiens, UniProt P61073). The experiment can be described thus: β-arrestin BRET assay, antagonist mode with 100 nM SDF-1. On the set-up: expressed in transfected cells; host or cells: HEK293FT. In kind it is cell-based. The text has this: (FIGS. 3A-3F and 14) BRET was used in this study to assess the real-time kinetic profiles resulting from any consequent increase in proximity, building upon the previously validated monitoring of GPCR/β-arrestin interactions utilizing BRET. BRET occurs between a complementary Renilla luciferase (Rluc) variant as donor and green fluorescent protein variant as acceptor. Upon Rluc-catalyzed oxidation of the coelenterazine substrate (such as coelenterazine h for first generation BRET (BRET) or EnduRen for extended BRET (eBRET), energy is transferred to the acceptor if within 10 nm, resulting in acceptor light emission peaking at a characteristic wavelength. BRET (3-arrestin assays were carried out as described previously (See, H. B., Seeber, R. M., Kocan, M., Eidne, K. A. and Pfleger, K. D. (2011) ‘Application of G protein-coupled receptor-heteromer identification technology to monitor beta-arrestin recruitment to G protein-coupled receptor heteromers’, Assay Drug Dev Technol, 9(1), 21-30, 10.1089/adt.2010.0336). CXCR4/Rluc8 cDNA constructs were generated from plasmids containing the respective receptor cDNA tagged with Rluc kindly provided by Aron Chakera (Oxford University, United Kingdom). The β-arrestin 2/Venus cDNA construct was prepared previously from pCS2-Venus kindly provided by Atsushi Miyawaki (RIKEN Brain Science Institute, Wako-city, Japan). BRET technology in cells transiently expressing CXCR4/Rluc8 and β-arrestin2/Venus in the presence of 100 nM SDF-1 agonist was evaluated in the presence of the CXCR4 agonist SDF-1/CXCL12 and the i-bodies. HEK293FT cells were maintained at 37° C., 5% CO2 in Complete Media (Dulbecco's modified Eagle's medium containing 0.3 mg/mL glutamine, 100 IU/mL penicillin, and […] streptomycin; Gibco) supplemented with 10% fetal calf serum (FCS) and […] Geneticin (Gibco). Transfections were carried out 24 h after seeding using Genejuice (Novagen) according to manufacturer's instructions. Cells were harvested with 0.05% Trypsin-EDTA (Gibco). HEK293FT cells were transfected using FuGene6 (Promega). 5 μM coelenterazine h (Promega) in HBSS was used as the luciferase substrate solution. Cells were harvested 24 h post-transfection in HEPES-buffered phenol red-free Complete Medium containing 5% FCS and added to a poly-L-lysine-coated white 96-well plate (Nunc). Dose-response curves were generated using BRET, with medium in the plate being replaced with PBS containing […] coelenterazine h (Molecular Probes) and assays carried out immediately. For these assays, 48 h post-transfection, the plate was incubated at […], 5% CO2 for 2 h with […] EnduRen (Promega) to ensure substrate equilibrium was reached. All BRET measurements were taken at 37° C. using the VICTOR Light plate reader with Wallac 1420 software (PerkinElmer). Filtered light emissions were sequentially measured at 400-475 and 520-540 nm. The BRET signal was calculated by subtracting the ratio of 520-540 nm emission over 400-475 nm emission for a vehicle-treated cell sample from the same ratio for a second aliquot of the same cells treated with agonist (in this instance in the presence of SDF-1 or CXCL12) and i-body (ADCX-99, ADCX-272, ACDX-6, ACDX-306, ADCX-668) at various concentrations. Data are mean±S.E.M. of four independent experiments carried out in duplicate.
Sequence of CXCR4 (P61073 whole entry): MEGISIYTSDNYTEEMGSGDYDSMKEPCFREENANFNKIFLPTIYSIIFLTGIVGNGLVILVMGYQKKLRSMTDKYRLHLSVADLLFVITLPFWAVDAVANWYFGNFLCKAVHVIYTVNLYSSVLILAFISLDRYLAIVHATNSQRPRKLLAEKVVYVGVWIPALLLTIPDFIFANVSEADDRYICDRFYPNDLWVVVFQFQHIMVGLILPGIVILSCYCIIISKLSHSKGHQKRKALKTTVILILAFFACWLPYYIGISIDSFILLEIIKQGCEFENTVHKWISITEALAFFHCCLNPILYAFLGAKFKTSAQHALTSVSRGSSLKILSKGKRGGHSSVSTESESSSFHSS
Binding of the i-bodies to CXCR4 were examined in a β-Arrestin BRET assay as described in See, Heng B et al (2011) Assay and Drug Development Technologies 9(1):21-30. The i-bodes were examined at ten concentrations with and without 100 nM SDF-1 with the addition of ‘vehicle’ and ‘SDF-1+vehicle’ controls in order to characterise if the i-bodies are agonist or antagonists of CXCR4 activity.
Background: BRET reads energy transfer from a luciferase to a nearby fluorophore.

B1: ADCX-99: CXCR4 binding i-body, SEQ ID NO: 11, parent of affinity matured binders (protein)
chain: LQVDIVPSQGEISVGESKFFLCQVAGSGSDIRISWFSPNGEKLTPNQQRISVVWNDDSSSTLTIYNANIDDAGIYKCVVYRTGGYRHRALVLGEATVNVKIFQ
modifications: ADCX-99 protein sequence
For B1, in experiment [1], the “binding to null lipoparticles” value was “did not bind; also recorded: very little binding”. For the same molecule, the “binding to CCR5 positive lipoparticles” value in experiment [2] is on record as “did not bind; also recorded: very little binding”. This molecule had a CCR4 activity in experiment [3] of 34%. Moreover, in experiment [4], the “IC50 (nM) in β-Arrestin BRET assay (Antagonist mode in the presence of 100 nM SDF-1)” value is “very weak effect; also recorded: No activity”. Further, the β-arrestin activity entry in experiment [4] (various concentrations) was “some degree of inhibition”.
